Source: the supplement of paper PMC12042874
± gives the uncertainty stated by the source.

test: amyloid nucleation score (Sup35N fusion, yeast selection) (log enrichment); library NNK2; higher = more nucleation; inactive = no reads after selection
Procedure, shortened: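 Psi-negative yeast expressed Sup35N fused to peptides of 20 random codons. They were induced 24 hours with 100 μM copper sulfate, grown 7 days at 30°C without adenine and uracil, and their plasmid inserts from input and output were Illumina-sequenced. The nucleation score is the DiMSum log enrichment of output over input reads, centred on the mode score of non-aggregating sequences. Sequences with under 100 input reads were excluded.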

Row | Substance | amyloid nucleation score
1 | RNGLTFRRTYSAYC | 1.01 ± 0.25
2 | FAVKGCNFGTGVFMRVE | 0.021 ± 0.34
3 | RQAKPICCHMVLLDSWPKSM | 0.164 ± 0.35
4 | CLSGLLIWAHHSLKLDVLIG | 0.366 ± 0.64
5 | RYVTKGLCLL | 1.16 ± 0.47
6 | RTWQCDDWSQYLLVVF | -0.1 ± 1
7 | WTYACPKRHNVIVVC | 3 ± 0.062
8 | VNIFVLLYLYVWNASIVITF | -0.221 ± 1.1
9 | GPFNNRRGQFYSVCIYFLLR | inactive
10 | LVFDACTPEEVGG | 0.735 ± 0.27
11 | PARTYILYNPDAGMSLKWSS | -1.06 ± 1.1
12 | PRCLDLLDIFV | 0.072 ± 1.1
13 | FIPEERDIWGYAPGNCIFFR | -1.77 ± 0.54
14 | RTVRTAAMLTCGW | 0.855 ± 0.48
15 | YGQSRANDTDDPGWGTVMRL | 0.3 ± 0.74
16 | KVQHLQR | 0.403 ± 0.26
17 | GFLLCVSGVYLGCLLVNSSI | 0.488 ± 0.56
18 | VPNVCAGYQPSETETYVLVR | 0.185 ± 0.65
19 | SLLNQLIKRNKSNAYVVHGI | -0.275 ± 0.4
20 | MEEGRS | 0.525 ± 0.28
21 | SPGRLFATEFVVVYVKYHSP | -0.121 ± 0.37
22 | VIFVVNIFHLYWLRVC | 0.748 ± 0.58

Row | Substance | amyloid nucleation score
23 | LFSLTGIKLE | -0.483 ± 1.1
24 | WVLVYIICFTQDDS | -1.4 ± 1.1
25 | IQEVRVACCWLIFRGCIRTA | 4.1 ± 0.12
26 | AVRPGSRSWGVIRGVNSTFL | 1.08 ± 0.43
27 | VMWDRRHFMAVSSDLEDKTR | 0.438 ± 0.16
28 | NKCQMSCNRRYEDMGYDRCM | 0.038 ± 0.53
29 | GMSITPWHWFGPCISFPDIN | -0.55 ± 0.53
30 | FPLRLLWSGGALCATPPIRV | 0.655 ± 0.47
31 | WSEVGWFIYDKFREFVFSIK | inactive
32 | IKVYSTVYQVSCLLRLMLLM | -1.24 ± 0.64
33 | FYSLTDPCICGCH | -0.341 ± 0.79
34 | FYRGM | -0.547 ± 0.5
35 | VKHVIAHTRG | 1.52 ± 0.38
36 | VSVIGKFSFHPKRMRG | -0.481 ± 0.39
37 | MNYRCKYAQDTHLSEQSSQE | -0.799 ± 0.33
38 | SNSCHNAATRGYR | 0.315 ± 0.74
39 | WFNCEWEDEFIEGQRVVMTV | 1.44 ± 0.47
40 | DLGHLTLISKFKFNESSAEH | -0.221 ± 1.1
41 | LCLTR | -0.307 ± 0.63
42 | AAWIAMCRILKQPTRCGHFL | 6.15 ± 0.073
43 | ISLNLVVN | -0.272 ± 0.8
44 | SSMSLWFMHYRNSKSCL | -0.721 ± 0.33

Row | Substance | amyloid nucleation score
45 | PFTSYML | 5.63 ± 0.065
46 | RFMFPRTSIVWNASYVVGVL | 2.92 ± 0.11
47 | YFCSLDSMPQSSVFDYLSAL | -0.43 ± 1.1
48 | SRNNIAQFCSLHAN | inactive
49 | VRGYCGFALQLVRCEWRICS | 7.272 ± 0.06
50 | PFYVSRRVCKYAF | -0.301 ± 0.28
51 | GIIDV | -0.441 ± 1.1
52 | IWYESWEQHGKDVQVPMVTD | 0.623 ± 0.22
53 | DSKWIM | -0.326 ± 0.46
54 | SGWVLGYSCRKLLLGGLSRG | 1.48 ± 0.31
55 | PGLTVYFGTVRMKVHCWSYR | 9.779 ± 0.029
56 | VVANINEVLINPRCSAGFHD | 0.683 ± 0.74
57 | LGSVVSTPFCYSMFRTFKKH | 0.109 ± 0.27
58 | YCGDLRCCKTHLSCRSCVSN | inactive
59 | AGELGLNIYVLSIYK | 5.26 ± 0.067
60 | TITCLFKVRRCVYV | -0.325 ± 0.55
61 | CPMCTFLCCLAFY | 8.626 ± 0.04
62 | HGQISLRMWQVRR | 5.759 ± 0.052
63 | EILTNQYFCRLWVMGTFYID | -1.19 ± 1
64 | SVYHLRLI | -0.494 ± 0.42
65 | KNTMIGSLRLVIYFSSGDKV | 7.17 ± 0.034
66 | EEVQAFI | -0.22 ± 0.48

Row | Substance | amyloid nucleation score
67 | FFIESSMLWYWDLKRYPMTL | -0.225 ± 0.54
68 | FFYFTMWNKHFEFVYNSSPC | -0.613 ± 0.64
69 | HVNGL | 0.098 ± 0.5
70 | GSCSKCNWCINKTAQGFVLS | -0.062 ± 0.45
71 | SAVFLLRLCTQIKCMTVR | inactive
72 | VTYEIVLWSWIKDVVHKLLR | -0.483 ± 0.48
73 | SMICGFKLASHSVG | -0.65 ± 0.45
74 | VLFGLKYFGSAGIQMSTCDK | 3.53 ± 0.066
75 | LPCGVSLALHSWENYILNRP | 0.55 ± 0.52
76 | KRLVGVTAMMCSFFLYLFLE | 0.859 ± 0.35
77 | CFFFISAVGPEILIVGFLGV | -0.684 ± 1
78 | DYYYIPSSIVSTIFKEFSPL | -1.97 ± 0.78
79 | CGWTDFMMYTWTEIMQIQLR | -1.03 ± 0.76
80 | TTLMWVWFIGFWP | 6.139 ± 0.04
81 | FCWNYMFVFRIGCFGFDFIG | inactive
82 | FVPFYYKADKLTILSS | inactive
83 | KVECEVWVRWVRCDGCAAGK | 1.22 ± 0.2
84 | DSACFYENSM | -0.48 ± 0.79
85 | GITYVVHSTRGTYREPEGPW | 0.469 ± 0.65
